Laboratory results from the DeepSol protein solubility set.

test: soluble on expression in E. coli; label from the status in PepcDB or PDB records

Row | Sequence | soluble on expression in E. coli
1 | MPQPESENLSVKLFKNHKQALETSGLVPYLPSSLEQLEQSGRTWYRELRRPQWIWQGVDAIELESILARIANSQKHRSRDEWLDTVSGYHSGNWAYEWIHAGMEHQKTASELDGDEAAEAYFKASLYFSVAGYPHIKGDNLAIQSQVLASQAYDMAAKQTSHRVEKILVPYQGRKITCYLHLPNTEKPLPVVIVSGGMDSLQTDMWRLYRDFLAPNNMAMLTLDMPSIGHSSHWPLSEDSSCLHQAVLNYLPNIPWVDRFHAAVMGFRFGGNVALRLSFLEPSRLKACVALGAPVHQILTNSARLKTMPKMYLDVLASRLAKQVVDINSLTSQMQAWSLKNQGFLSGGRKTSVSVLAIGLKDDPVSPKSDNKLAALFSKYGKGVELNSKTLHSGYEEALKQMIEWIKEEMKQ | not soluble
2 | MSLTIKNSLGQSHDYIKMFVKEGDTVVDATCGNGNDTAFLASLVGENGRVFGFDIQDKAIANTTKKLTDLNLIDRVTLIKDGHQNMDKYIDCPVKAVMFNLGYLPSGDHSISTRPETTIQALSKAMELLVTGGIITVVIYYGGDTGFEEKEKVLEFLKGVDQKKFIVQRTDFINQANCPPILVCIEKISEGHHHHHH | soluble
3 | MCGKTILLEVTPCDNFVFNKSTNLTDTAYVTLKNISEKPVCFKVKTSVPNMYVSRPNPDLLKPGEARQLSVKFRSSDKVSLNAKSYKLKIESCEFESEDIDDLKSFWSSIPNEKILVHKSPIILGTGSSPDFRNDQIASESSRQSSPIQNVSDDGKSSHHSTAKQLQENNENSKSLKYTKQLVEVPLGENQQADQTGTTCDKKDEFQKKNQLEVEIKFVDKIHEIKSQLEDSFELKLKEMEMRLEEKFEKRISRLTQFMETISLSNSPGNSRRVFELDDNFSIVAKKELEQMRQDFEKVLDGQNKIAEEKMNELRKRREELQV | not soluble
4 | MREPIVAIATPYGESAIGIVRLSGKGVLDLVKKFFKTKREIKPRYAHFGVLYDDKGEELDEGVLIYYKAPHSYTGEDMVELNLHGNPRILKRALELFVNAGARLAEPGEFTKRAFLNGKLDLTQAEAVAELISAKTELARKVALKQLHGELSKHIRPLRETLLELLAYVEADIEFAEEDIPTLTKEQVIQMVDKVIEGINELLKTAKTGKFIREGVKLAIVGRPNVGKSSLFNALLKEERAIVTDIAGTTRDFIEETLQIKGVPVRLVDTAGIRETKDLVERIGVERSKQKVKEADLILFVIDASQEITEEDLRIYEEIKEKDHIVVANKVDLGIRANLEKFKGEKIVKVSALKGTGLEELSEEILKKVGANLEESVNIYISVRHETLLKKAKEVLERFKEEFREKDISPEIAMLDLREASDYLGEILGEITTEDLLGKIFSTFCIGK | soluble
5 | HQQLNSLPTMEGPPTFNPPVPYFGRLQGGLTARRTIIIKGYVPPTGKSFAINFKVGSSGDIALHINPRMGNGTVVRNSLLNGSWGSEEKKITHNPFGPGQFFDLSIRCGLDRFKVYANGQHLFDFAHRLSAFQRVDTLEIQGDVTLSYVQI | soluble
6 | ASQIERNLARISAEKNRLDTILRGMGEGLMVSDAGGTVTLVNPAFLELFGLTQSVEGRQIIEIARFPELHETFRAVVSSRSEHVEEMTLPLGDEKQVLTHWVPLMEEDELRGVVAVFHDIS | not soluble
7 | MGSSHHHHHHSSGTIEGRMIRLTDNRPIGFIDSGVGGLTVVKEALKQLPNENILFVGDTARCPYGPRPAEQVIQYTWEMTDYLVEQGIKMLVIACNTATAVALEEIKAALSIPVIGVILPGTRAAVKKTQNKQVGIIGTIGTVKSQAYEKALKEKVPELTVTSLACPKFVSVVESNEYHSSVAKKIVAETLAPLTTKKIDTLILGCTHYPLLRPIIQNVMGENVQLIDSGAETVGEVSMLLDYFNLSNSPQNGRTLCQFYTTGSAKLFEEIAEDWLGIGHLNVEHIELGGK | soluble
8 | MGSDKIHHHHHHMGETNQQGVKNPLQTKEVAERQAKKEKQVVFIYYDHEPTYKLLEDQLVDQGDFELVSTNQSEDAVAILGSLSIDSVVFINTAKSKQMYQLYEKTSGSHHYLHAPFFYIGECSHEEMGQIFANGHEFISSPFNLETFYLKMKAKLDHCTRIKNDRQIDLVTQLYTERFLEKMFHLQVANLVRFKTSFTVIFLSLYNYYELKTKYGLTIADQIVATVSDYIKSQVRDSDLAFRMDAEDEIAVILPNGGQTEAGYFVRRVFEHIPPVTTTENGEPLQFFIELSASIVEINNADVTYEEMLEKGKEALQEAVFKGASTIETVNDFQEPNVEKIKVTVIVEDQVIRSVLVNLLQRLTLEYFELDVQTFFDGEALLESSWHRSAHTHIVIMDDVLPKRNGLEMVHELRKMPNNEKYIVMMLSNRKTEEDVTYAFEMGVDDYITKPFNVKFVESRLKRYLKRLR | not soluble
9 | MHHHHHHSSGVDLGTENLYFQSMRTGYRVFSANSTAACTELAKRITERLGAELGKSVVYQETNGETRVEIKESVRGQDIFIIQTIPRDVNTAVMELLIMAYALKTACARNIIGVIPYFPYSKQSKMRKRGSIVCKLLASMLAKAGLTHIITMDLHQKEIQGFFSFPVDNLRASPFLLQYIQEEIPNYRNAVIVAKSPDAAKRAQSYAERLRLGLAVIHGEAQCTELDMDDGRHSPPMVKNATVHPGLELPLMMAKEKPPITVVGDVGGRIAIIVDDIIDDVESFVAAAEILKERGAYKIYVMATHGILSAEAPRLIEESSVDEVVVTNTVPHEVQKLQCPKIKTVDISLILSEAIRRIHNGESMAYLFRN | soluble
10 | MQPDVSFAPDVSFVIASYNAEATLDRAIASAIAQKGVSVEIIVVDDQSRDATLDVARAYPGDIVRVVALAKNRGPGGARNAGLDVARGRWIAVLDSDDAVFPGRLAAMISRAEKADAQIAVDNLQVIREDGVVEDAMFPRQYLEGLREISLATYIAGNVVFESKFNLGYLKPIFQRRFLDENRLRYDEQLRIGEDYILFAEALAKGGRCVVEPAIGYAYHIRSGSISRVLELHHVEAMRKADAVFAQTHRMDEAAQVAFARRGRSLRKAASFLAMVQHIKARSPLKAIRTALSDPAAVRHMGMPIAVRLRRVAAQFAVGAGRLEHHHHHH | soluble
11 | MGSDKIHHHHHHMKIDRLIGIITILLQKERATIPQLAERFEVSCRTIQRDIDAIGQAGIPIVSRQGYGGGLSIADGYKLDKTVLTKKELQAILTGIRSIDSISKTTYGQTLIEKFANGKAAVLAEQDMILIDLASWYQDSLSDKIEQLRQAIFNREKVFFVYYSDKGESERLIEPYLILFKWAAWYVYGYCLTKNEYRLFKLNRLWKLKNTNLTYIPRNIPEGKLEFERYFQTEEIRLTALFDARAKYRLIEEYGPECFTVSEPDKLLFQRSFSNPEYLLQWLLSFGDRVRVIEPPELKANIQEHAKNMLRQDD | not soluble
12 | MKYKDLRDFIAMLEQQGKLKRVAHPVSPHLEMTEIADRVLRAEGPALLFENPVKPDGTRYDYPVLANLFGTPERVAMGMGADSVSKLREIGQTLAYLKEPEPPKGIKDAFSKLPLLKDIWSMAPNVVKNAPCQEIVWEGEDVDLYQLPIQHCWPEDVAPLVTWGLTVTRGPHKKRQNLGIYRQQLIGKNKLVMRWLSHRGGALDYQEFRKLNPDTPYPVAVVLGCDPSTILGAVTPVPDTLSEYQFAGLLRGSRTELVKCIGSDLQVPARAEIVLEGVIHPNETALEGPYGDHTGYYNEQGHFPVFTVERITMRENPIYHSTYTGKPPDEPAVLGVALNEVFVPLLQKQFSEITDFYLPPEGCSYRMAVVSMKKQYAGHAKRVMTGCWSFLRQFMYTKFIIVVDDDVNVRDWKEVIWAVTTRMDPVRDTVLVENTPIDYLDFASPVSGLGGKMGLDATSKWPGETDREWGRVIKKDPAVTVKIDGIWGKLGLLEHHHHHH | not soluble
13 | MAHHHHHHMGTLEAQTQGPGSMKLLFVCLGNICRSPAAEAVMKKVIQNHHLTEKYICDSAGTCSYHEGQQADSRMRKVGKSRGYQVDSISRPVVSSDFKNFDYIFAMDNDNYYELLDRCPEQYKQKIFKMVDFCTTIKTTEVPDPYYGGEKGFHRVIDILEDACENLIIKLEEGKLIN | soluble
14 | VPMDELNERIFKEVVMYLRQHIKNYDNILDALRSTFHSTNHVEKLFFGGKINMLNQPEFHDITRVRSLLSLIEKEQDVLKLVQSPHTGISIKIGKENDYEEMENCSLITASYSVDQKQIGSIAIIGPTRMNYSRVVSLLQHVTSDLSKALTSLYDE | not soluble
15 | MQKHFDCVLKHLLSRCCARRRESSFRPAPAGKVFLD | not soluble
16 | MAHHHHHHMADQNPDLKVEEALKGADIKLLLIDFDGTLFVDKDIKVPSENIDAIKEAIEKGYMVSICTGRSKVGILSAFGEENLKKMNFYGMPGVYINGTIVYDQIGYTLLDETIETDVYAELISYLVEKNLVNQTIFHRGESNYVTEDNKYADFLQKMYSENRSIIIRHNEMLKYRTMNKLMIVLDPSESKTVIGNLKQKFKNKLTIFTTYNGHAEVTKLGHDKYTGINYLLKHYNISNDQVLVVGDAENDIAMLSNFKYSFAVANATDSAKSHAKCVLPVSHREGAVAYLLKKVFDLKK | soluble
17 | MSHLRIPANWKVKRSTPFFTKENVPAALLSHHNTAAGVFGQLCVMEGTVTYYGFANETATEPEVKVVINAGQFATSPPQYWHRVELSDDARFNIHFWVEEDHQGEEMYQQKKALEHHHHHH | soluble
18 | MFQQLSARLQEAIGRLRGRGRITEEDLKATLREIRRALMDADVNLEVARDFVERVREEALGKQVLESLTPAEVILATVYEALKEALGGEARLPVLKDRNLWFLVGLQGSGKTTTAAKLALYYKGKGRRPLLVAADTQRPAAREQLRLLGEKVGVPVLEVMDGESPESIRRRVEEKARLEARDLILVDTAGRLQIDEPLMGELARLKEVLGPDEVLLVLDAMTGQEALSVARAFDEKVGVTGLVLTKLDGDARGGAALSARHVTGKPIYFAGVSEKPEGLEPFYPERLAGRILGMGDIESILEKVKGLEEYDKIQKKMEDVMEGKGKLTLRDVYAQIIALRKMGPLSKVLQHIPGLGIMLPTPSEDQLKIGEEKIRRWLAALNSMTYKELENPNIIDKSRMRRIAEGSGLEVEEVRELLEWYNNMNRLLKMVK | soluble
19 | SLNVLCNNPHTADCNNDAQVDRYFREGTTCLMSPACTSEGYASQHECQQACFVGGEDHSSEMHSSCLGDPPTSCAEGTDITYYDSDSKTCKVLAASCPSGENTFESEVECQVACGAPIEG | soluble
20 | MGSDKIHHHHHHMILCAGEALIDMLPRKTEAGEAAFAPYPGGSVFNTAVALSRLGTKTEFFSGLSTDLFGERLDSVLMANGVGSALAHRNDRPTTLAFVTLTDGHASYAFYDENTAGRMLTEADLPAIPETAKACFFGGISLAVEPCADAYAALIGRANDLGRVVMIDPNIRPGFIADEARFRARLDQMLAQTDIIKASDEDLRWLLGDMSLPELAEALRAKGPSVVLVTQGAAGVTGFYAGGEIHVDAEAVTVVDTVGAGDTFNAGVLAGLDDAGALDKAMIAKGLDAETLRGAMELGVRASAVTVTRAGANPPRRDELS | not soluble
21 | MGRLDGKVIILTAAAQGIGQAAALAFAREGAKVIATDINESKLQELEKYPGIQTRVLDVTKKKQIDQFANEVERLDVLFNVAGFVHHGTVLDCEEKDWDFSMNLNVRSMYLMIKAFLPKMLAQKSGNIINMSSVASSVKGVVNRCVYSTTKAAVIGLTKSVAADFIQQGIRCNCVCPGTVDTPSLQERIQARGNPEEARNDFLKRQKTGRFATAEEIAMLCVYLASDESAYVTGNPVIIDGGWSLG | soluble
22 | MKGLILAAGRGTRLRPLTHTRPKPAIRVAGRPIIHYAVENLLEAGVREIGVVVSPETERDLKVALEGYPVRYVLQEEPQGLAHAVDVARGFLGESPFVLYLGDNLFQKGIRRFLEAFKPGVSAVIALVRVEDPRQFGVAVLEGNRVVRLLEKPKDPPSDLAVAGVYVFSPEVLEVVRGLKPSARGEYEITDAIQGLIDRGKTVVGVEVEGWWKDTGRHQDLLDANRLLLEELTPKVEGDVVESQLTGRVVVEKGAKVVRSTVIGPAHIGAGAVVEEAFVGPFTSVGPRARVVRSEVEYSLLEEEAVVEEVRLRLQECILGVRAEVKSRDGLPRAHRLILGDLSQVELA | soluble
